Source: paper PMC3437384
One block for each substance: values may come before it.

Assays:
[1] = biological target: cTnI switch peptide 147-163 (Homo sapiens) (UniProt P19429); test: NMR; details: cited from earlier work
[2] = biological target: N-domain of cardiac troponin C with the L48Q mutation, cNTnC(L48Q) (UniProt P63316); test: NMR titration
[3] = biological target: cardiac troponin I (cTnI), rat wild type (rat) (UniProt P23693); test: ITC
Sequence of cardiac troponin I (cTnI), rat wild type (rat) (P23693 whole entry): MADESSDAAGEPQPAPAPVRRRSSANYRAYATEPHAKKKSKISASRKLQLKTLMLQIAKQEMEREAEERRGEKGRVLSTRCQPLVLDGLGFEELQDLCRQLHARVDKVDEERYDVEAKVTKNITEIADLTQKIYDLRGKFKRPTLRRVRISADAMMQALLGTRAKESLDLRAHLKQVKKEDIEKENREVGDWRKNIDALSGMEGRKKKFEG

Substance: cNTnC N-terminal domain (from UniProt P63316)
- Kd [1]: 150 µM

- Kd [2]: 61 µM
Substance: cTnI peptide corresponding to residues 147-163, cTnI_(147-163) switch peptide

- Kd [3]: 0.132 µM
- dH [3]: -22.1 kJ/mol
Substance: cardiac troponin C L48Q variant, cTnC(L48Q) (from UniProt Q4PP99 1-161) (natural protein)
